Source: paper PMC5696618 (Journal of biomolecular screening, 2016)
Where two headings read alike, the source gives them in different places. Each block holds one molecule with its values, some of them ahead of it.

B1: mouse CNBh domain (residues 552-724) (domain or fragment, UniProt Q60603 552-724, looked up)
chain: TEKVLQICPKDMRADICVHLNRKVFKEHPAFRLASDGCLRALAMEFQTVHCAPGDLIYHAGESVDSLCFVVSGSLEVIQDDEVVAILGKGDVFGDVFWKEATLAQSCANVRALTYCDLHVIKRDALQKVLEFYTAFSHSFSRNLILTYNLRKRIVFRKISDVKREEEERMKRK
B2: mouse EAG1 PAS protein (residues 1-137) (domain or fragment, UniProt Q60603 1-137, looked up)
chain: MTMAGGRRGLVAPQNTFLENIVRRSNDTNFVLGNAQIVDWPIVYSNDGFCKLSGYHRAEVMQKSSACSFMYGELTDKDTVEKVRQTFENYEMNSFEILMYKKNRTPVWFFVKIAPIRNEQDKVVLFLCTFSDITAFK

Tests used:
hERG PAS domain = hERG PAS domain (Homo sapiens, UniProt Q12809); experiment: Thermal shift assay; format: binding; conditions: for Shift in Tm of hERG PAS protein: dose response, compound solubility issues limited this study
[1] = biological target: B2; experiment: ITC
[2] = biological target: B2; experiment: ITC; remark: listed apart in the source
[3] = biological target: B2; experiment: ITC; remark: listed apart in the source
[4] = biological target: B1; experiment: ITC
[5] = biological target: B1; experiment: ITC; remark: listed apart in the source
[6] = biological target: B1; experiment: ITC; remark: listed apart in the source
[7] = biological target: B1; experiment: fluorescence polarisation
[8] = biological target: B1; experiment: fluorescence polarisation; remark: listed apart in the source
[9] = biological target: B1; experiment: fluorescence polarisation; remark: listed apart in the source
[10] = biological target: B1; experiment: fluorescence polarisation; remark: listed apart in the source
[11] = biological target: B1; experiment: fluorescence polarisation; remark: listed apart in the source

hERG PAS domain, sequence (Q12809 1-135): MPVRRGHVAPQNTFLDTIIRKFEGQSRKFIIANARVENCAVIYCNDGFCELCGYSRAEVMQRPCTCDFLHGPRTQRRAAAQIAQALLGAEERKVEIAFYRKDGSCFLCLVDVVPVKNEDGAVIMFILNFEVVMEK

Molecule: Oc1ccc(Cc2ccc(O)cc2)cc1 [Bisphenol F]
- Shift in Tm of hERG PAS protein (hERG PAS domain): No shift

Molecule: CC(C)(C)c1cc(S)cc(C(C)(C)C)c1O [ST057196]
- Decrease in Tm of hERG PAS protein (hERG PAS domain; on addition of 50 µM of compound): more than 18 °C

Molecule: Oc1ccc(C(c2ccc(O)cc2)(C(F)(F)F)C(F)(F)F)cc1 [Bisphenol AF]
- Decrease in Tm of hERG PAS protein (hERG PAS domain; human, 200 µM, pH 7.5): at least 4.5 °C

Molecule: CC(C)(c1ccc(O)cc1)c1ccc(O)cc1 [Bisphenol A]
- Shift in Tm of hERG PAS protein (hERG PAS domain): No shift

Molecule: B1
- stoichiometry N [1]: 1.3 ± 0.27
- stoichiometry N [2]: 0.77
- stoichiometry N [3]: 1.2

Molecule: B2
- Kd [4]: 2100 ± 800 nM
- Kd [5]: 3300 nM
- Kd [6]: 1100 nM

- Kd [7]: 3600 ± 1200 nM
- Kd [8]: 1800 ± 560 nM
- Kd [9]: 2300 ± 930 nM
- Kd [10]: 2400 ± 670 nM
- Kd [11]: 3100 ± 1100 nM
B3: fluorescein-labeled mEAG1 PAS (F-PAS) (domain or fragment, mouse, UniProt Q60603 1-137, looked up)
chain: MTMAGGRRGLVAPQNTFLENIVRRSNDTNFVLGNAQIVDWPIVYSNDGFCKLSGYHRAEVMQKSSACSFMYGELTDKDTVEKVRQTFENYEMNSFEILMYKKNRTPVWFFVKIAPIRNEQDKVVLFLCTFSDITAFK
modifications: fluorescein (fluorescein 5-maleimide) on accessible cysteine residues; fluorescein to protein molar ratio typically 3 or 4
